Results taken from WO2022210830A1 (dated 2022).
Substitutions are numbered along the chain they refer to.

B1: 0210-30L (antibody, V domains shown)
VH: QVQLVQSGAEVKKPGSSVKVSCKASGGTFSSYAINWVRQAPGQGLEWMGRIIPILGRANYAQKFQGRVTITADKSTSTAYMELSSLRSEDTAVYYCARNPEEFSSSYVYYYYMDVWGKGTTVTVSS
VL: QSALTQPRSVSGSPGQSVTISCTGTSSDVGGYSYVSWYQQHPDKAPKLMIYDVSKRPSGVPDRFSGSKSGNTASLTISGLQAEDEADYYCCSYAGSYTSWVFGGGTKLTVLG
B2: 0210-28K (antibody, V domains shown)
VH: QMQLVQSGPEVKKPGTSVKVSCKASGFTFSISAVQWVRQARGQRLEWIGWIVVGSGNTNYAQKFQERVTITRDMSTSTAYMELSSLRFEDTAVYYCAAPYCGGDCSDGFDIWGQGTMVTVSS
VL: not shown
B3: 0210-38L (antibody, V domains shown)
VH: EVQLVESGGGLVQPGGSLRLSCAASGFTFNSYWMSWVRQAPGKGLEWVADIKQDGSEKYYVDSVKGRFTISRDNAKNSLYLQMNSLRAEDTAVYYCARQLYYYGPIDYWGQGTLVTVSS
VL: NFMLTQPHSVSESPGKTVTISCTRSSGSIASNYVQWYQQRPGSSPTTVIYEDNQRPSGVPDRFSGSIDSSSNSASLTISGLKTEDEADYYCQSYDSNNRVFGGGTKLTVLG
B4: 1028-29K (antibody, V domains shown)
VH: QVQLVQSGAEVKKPGASVKVSCKASGYTFTSYYMHWVRQAPGQGLEWMGIINPSGGSTSYAQKFQGRVTMTRDTSTSTVYMELSSLRSEDTAVYYCARDGTPDIVVVPAAPLDYWGQGTLVTVSS
VL: EIVLTQSPATLSLSPGERATLSCRASQSVSSYLAWYQQKPGQAPRLLIYDVSNRATGIPARFSGSGSGTDFTLTISSLEPEDFAVYYCQQRSNWPPVLTFGGGTKVEIKR
B5: 1028-68L (antibody, V domains shown)
VH: QVQLVESGGGVVQPGRSLRLSCAASGFTFSSYAMHWVRQAPGKGLEWVAVISYDGSNKYYADSVKGRFTISRDNSKNTLYLQMNSLRAEDTAVYYCARADGSGWNYWGQGTLVTVSS
VL: SYELTQPPSVSVSPGQTARITCSGDPLPKQYAYWYQQKPGQAPVLVIYKDSERPSGIPERFSGSSSGTTVTLTISGVQAEDEADYYCQSADSSGTYGWEFGGGTKLTVLG
B6: 1028-65K (antibody, V domains shown)
VH: QVQLVQSGAEVKKPGASVKVSCKASGYTFSSYYMHWVRQAPGQGLEWMGIINPSGGSTSYAQKFQGRVTMTRDTSTSTVYMELSSLRSEDTAVYFCAREGRAAAETDNNWFDPWGQGTLVTVSS
VL: not shown
B7: 1028-25K (antibody, V domains shown)
VH: QVQLVESGGGVVQPGRSLRLSCAASEFTFSGYAMHWVRQAPGKGLEWVAVISYDGINKYYADSVKGRFTISRDNSKNTLYLQMSSLRAEDTAVYYCARDPDYGDEGAFDYWGQGTLVTVSS
VL: not shown
B8: 1028-87L (antibody, V domains shown)
VH: not shown
VL: QAGLTQPPSVSKGLRQTATLTCTGNSNNVGNQGAAWLQQHQGHPPKLLSYRNNNRPSGISERLSASRSGNTASLTITGLQPEDEADYYCSAWDSSLSAQVFGGGTKLTVLG
B9: 1028-62L (antibody, V domains shown)
VH: QVQLQESGPGLVKPSGTLSLTCAVSGGSISSSNWWSWVRQPPGKGLEWIGEIYHSGSTNYNPSLKSRVTISVDKSNNQFSLKLSSVTAADTAVYYCARGWNYDYWGQGTLVTVSS
VL: QSALTQPASVSGSPGQSITISCTGTSSDVGSYNLVSWYQQHPGKAPKLMIYEGSKRPSGVSNRFSGSKSGNTASLTISGLQAEDEADYYCCSYAGSSTWVFGGGTKLTVLG
B10: 1028-84K (antibody, V domains shown)
VH: QVQLVESGGGVVQPGRSLRLSCAASGFTFSNYAMHWVFQAPGMGLEWVAVISYDGINKYYADSVKGRFTISRDNSKNTLYLQMNSLRAEDTAVYYCASHRDDYVDSADAFDIWGQGTMVTVSS
VL: not shown
B11: 1028-55K (antibody, V domains shown)
VH: EVQLVESGGGLVQPGGSLRLSCAASGFIVSSNYMSWVRQAPGKGLEWVSLIYSGGSTYYVDSVKGRFTISRDNTKNTLYLQMNSLRAEDTAVYYCARDLDVRGALDIWGQGTMVIVSS
VL: not shown
B12: 1028-50K (antibody, V domains shown)
VH: EVQLVESGGGLVKPGGSLRLSCAASGFTFSSYIMNWVRQAPGKGLEWVSSISSSSYIYYADSVKGRFTISRDNAKNSLYLQMNSLRAEDTAVYYCARIVGATSYYYYGMDVWGQGTTVTVSS
VL: not shown
B13: 1028-106K (antibody, V domains shown)
VH: QLQLQESGPGLVKPSETLSLTCTVSGGSISSSYHYWGWIRQPPGKGLEWIGTIYYSGSTYYNPSLKSRVTISVDTSKNQFSLKLSSVTAADTAVYYCARRGYSYDSSGDGVDYWGQGTLVTVSS
VL: DIQMTQSPSSLSASVGDRVTITCRASQGIRNDLGWYQQKPGKAPKRLIYAASSLQSGVPSRFSGSGSGTEFTLTISSLQPEDFATYYCLQHNSYPLTFGGGTKVEIKR
B14: 1028-164L (antibody, V domains shown)
VH: QVTLRESGPALVKPTQTLTLTCTFSGFSLSTSGMCVSWIRQPPGKALEWLALIDWDDDKYYSTSLKTRLTISKDTSKNQVVLTMTNMDPVDTATYYCARIPVEMATIGDYYYYGMDVWGQGTTVTVSS
VL: not shown
B15: 1028-30K (antibody, V domains shown)
VH: QVQLVQSGAEVKKPGSSVKVSCKASGGTFNTYAISWVRQAPGQGLEWMGGIIPIFGTANYAQKFQGRVTITADESTSTAYMELSSLRSEDTAVYYCARGEPGYCSGGNCYSSDYWGQGTLVTVSS
VL: not shown
B16: 1028-61L (antibody, V domains shown)
VH: EVQLVESGGGLVQPGGSLRLSCAASGIDVSSNYMSWVRQAPGKGLEWVSVIYSGGSTYYADAVRGRFTISRHNSKNTLYLQMNSLRAEDAAVYYCARDAQRYGMDVWGQGTTVTVSS
VL: SYVLTQPPSVSVAPGKTARITCGGNNIGSNTVHWYQQKPGQAPVLVIYYDSDRPSGIPERFSGSNSGNTATLTISRVEAGDEADYYCQLWDSSSDHVVFGGGTKLTVLG
B17: 1028-137K (antibody, V domains shown)
VH: QVHLVESGGGVVQPGRSLRLSCAASGFTFNSYAMHWVRQAPGKGLEWVAVISYDGNNKYYADSVKGRFTISRDNSKNTLYLQMNSLRAEDTAVYYCARDDDSGSYLYYFDYWGQGTLVTVSS
VL: not shown
B18: 1028-37K (antibody, V domains shown)
VH: QVQLQQSGPGLVKPSQTLSLTCDISGDSVSSNSVAWNWIRQSPSRGLEWLGRTYYRSKWYNDYAVSVKSRITINPDTSKNQFSLQLNSVTPEDTAVYYCASGGYQLLYDDAFDIWGQGTMVTVSS
VL: not shown
B19: 1028-05K (antibody, V domains shown)
VH: QVTLKESGPVLVKPTETLTLTCTVSGFSLSNARMGVSWIRQPPGKALEWLAHIFSNDEKSYSTSLKRRLTISKDTPKSQVVLTMTNMDPVDTATYYCARTLGFWSGEYYYYYMDVWGKGTTVTVSS
VL: EIVMTQSPATLSVSPGERATLSCRASQSVSSSYLAWYQQKPGQAPRLLIYGASTRATGIPARFSGSGSGTEFTLTISSLQSEDFAVYYCQHYNNWPPLFTFGPGTKVDIKR
B20: 1028-121K (antibody, V domains shown)
VH: B19 VH with N31D, S62N, R67S, P76S, T100A, E107Y
VL: not shown

These binders were tested against T1, SARS-CoV-2 spike protein (SARS-CoV-2, UniProt P0DTC2 14-1273) (assay: competition ELISA: antibody + biotin-ACE2 on immobilised spike).

Binder	IC50
B1	~0.2 µg/mL
B2	~0.15 µg/mL
B3	~1.5 µg/mL

These binders were tested against T2, SARS-CoV Receptor binding domain (RBD) protein (SARS-CoV, UniProt P59594 306-527) (assay: ELISA, immobilised SARS-CoV RBD).

Binder	binding result
B4	no binding (tested: 200 ng/ml)
B5	no binding (tested: 200 ng/ml)
B6	no binding (tested: 200 ng/ml)
B7	no binding (tested: 200 ng/ml)
B8	no binding (tested: 200 ng/ml)
B9	no binding (tested: 200 ng/ml)
B10	no binding (tested: 200 ng/ml)
B11	no binding (tested: 200 ng/ml)
B12	no binding (tested: 200 ng/ml)
B13	no binding (tested: 200 ng/ml)
B14	no binding (tested: 200 ng/ml)
B15	no binding (tested: 200 ng/ml)
B16	no binding (tested: 200 ng/ml)
B17	no binding (tested: 200 ng/ml)

Each binder was assayed against T2, SARS-CoV Receptor binding domain (RBD) … (assay: ELISA, immobilised domain protein, 200 ng/ml antibody).

Binder	binding result
B18	binds
B19	binds
B20	binds

These binders were tested against T3, SARS-CoV-2 N-terminal domain (NTD) protein (SARS-CoV-2, UniProt P0DTC2 14-305) in the same assay as above.

Binder	binding result
B4	binds
B9	binds
B13	binds
B14	binds
B17	binds

Each binder was assayed against T1, SARS-CoV-2 spike protein (assay: not given).

Binder	IC50
B18	~0.7 µg/mL
B19	≥ 10 µg/mL
B20	~7.5 µg/mL
B11	~0.3 µg/mL
B16	~0.25 µg/mL

Each binder was assayed against T3, SARS-CoV-2 N-terminal domain (NTD) … (assay: ELISA, immobilised NTD).

Binder	binding result
B5	no binding (tested: 200 ng/ml)
B6	no binding (tested: 200 ng/ml)
B7	no binding (tested: 200 ng/ml)
B8	no binding (tested: 200 ng/ml)
B18	no binding (tested: 200 ng/ml)
B19	no binding (tested: 200 ng/ml)
B20	no binding (tested: 200 ng/ml)
B10	no binding (tested: 200 ng/ml)
B11	no binding (tested: 200 ng/ml)
B12	no binding (tested: 200 ng/ml)
B15	no binding (tested: 200 ng/ml)
B16	no binding (tested: 200 ng/ml)

The binders below were run against SARS-CoV-2 spike protein, Wuhan type (WT), on pseudotype virus SARS-CoV-2 St19pv (SARS-CoV-2, UniProt P0DTC2 14-1273) (assay: cell-based or functional assay).

Binder	IC50, inhibition of pseudotype virus infection, 1st experiment	IC50, inhibition of pseudotype virus infection, 2nd experiment
B2	0.0084 µg/mL	0.0303 µg/mL
